T1: BANF1 WT (UniProt O75531 1-89)
T1 sequence: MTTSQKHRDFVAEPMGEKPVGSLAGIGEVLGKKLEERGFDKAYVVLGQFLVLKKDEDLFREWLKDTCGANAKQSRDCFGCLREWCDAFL


What was measured:
BANF1 WT = target: T1, BANF1 WT; assay: EMSA; 0-1 uM protein, 10 nM DNA, 30 min 4 C; 10 mM Tris-HCl pH 7.0, 20 mM NaCl, 100 ng/mL BSA, 5 mM DTT, 30 min at 4 C; 7% PAGE 0.5x TBE at 4 C (short DNA) or 0.6% agarose 1x TBE (plasmid); conditions: protein: recombinant; tags: N-terminal His6; label: 5'-FAM on strand 1; blunt
[1] = target: the molecule itself; assay: SEC; gel filtration of recombinant HexaHis BANF1, absorbance at 280 nm against elution volume; column calibrated with carbonic anhydrase (29 kDa) and myoglobin (17 kDa)

Binder	binding result (BANF1 WT)	stoichiometry N [1]
FAM-labelled short dsDNA (dsDNA) DNA 1: CTCTCCCTTCGCTCCTTTCCTCT DNA 2: AGAGGAAAGGAGCGAAGGGAGAG	binds	
recombinant HexaHis-tagged wild type BANF1 (Barrier-to-Autointegration Factor 1) (natural protein, human, UniProt O75531 1-89, looked up, Barrier-to-Autointegration Factor 1 (BANF1, BAF1), human, 89 amino acid residues; BANF1 CDS sub-cloned into pEX-N-His (Origene); also called BANF1 WT; WT BANF1; not shown: His6, N-terminal, kept) MTTSQKHRDFVAEPMGEKPVGSLAGIGEVLGKKLEERGFDKAYVVLGQFLVLKKDEDLFREWLKDTCGANAKQSRDCFGCLREWCDAFL		2
recombinant HexaHis-tagged A12T BANF1 (natural protein, human, UniProt O75531 1-89, looked up, Barrier-to-Autointegration Factor 1 (BANF1, BAF1), human, 89 amino acid residues; BANF1 CDS in pEX-N-His (Origene) with the patient mutation c.34G>A [p.A12T] made by site-directed mutagenesis; A12T is the mutation found in patients with Nestor-Guillermo Progeria Syndrome; also called BANF1 A12T; A12T mutant; not shown: His6, N-terminal, kept) MTTSQKHRDFVTEPMGEKPVGSLAGIGEVLGKKLEERGFDKAYVVLGQFLVLKKDEDLFREWLKDTCGANAKQSRDCFGCLREWCDAFL		2

Source: publication PMC4266902, “Néstor-Guillermo Progeria Syndrome: a biochemical insight into Barrier-to-Autointegration Factor 1, alanine 12 threonine mutation” (BMC Molecular Biology, 2014)
